According to article PMC3264566, “Structure-Function Studies of DNA Binding Domain of Response Regulator KdpE Reveals Equal Affinity Interactions at DNA Half-Sites”:
Residue numbers refer to the chain shown, from its start.

Assays:
Conditions in all cases: protein: recombinant; tags: N-terminal His-tag removed with TEV; chain copies: 2; blunt
KdpE DBD (KdpEDBD) [1] = target: T1, KdpE DBD (KdpEDBD) (Escherichia coli str. K-12 substr. …, UniProt P21866 124-225); assay: AUC sedimentation equilibrium; S2 half-site only, 1:1, AB model; AUC: 50 mM HEPES pH 7.4, 150 mM KCl, 1 mM EDTA, 20 C, DNA 0.5 uM in SV; EMSA: 10 mM Tris pH 8.0, 50 mM NaCl, 5% glycerol, 0.1% Triton X-100, 10 mM DTT, 1 mM EDT
T1 sequence: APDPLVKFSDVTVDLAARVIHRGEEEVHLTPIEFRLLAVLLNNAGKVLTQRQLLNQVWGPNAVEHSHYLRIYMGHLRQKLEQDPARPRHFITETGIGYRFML

KdpE DBD (KdpEDBD) [2] = target: T1, KdpE DBD (KdpEDBD); assay: AUC sedimentation velocity (Sw isotherm); two-site model, Kd1; AUC: 50 mM HEPES pH 7.4, 150 mM KCl, 1 mM EDTA, 20 C, DNA 0.5 uM in SV; EMSA: 10 mM Tris pH 8.0, 50 mM NaCl, 5% glycerol, 0.1% Triton X-100, 10 mM DTT, 1 mM EDT
KdpE DBD (KdpEDBD) [3] = target: T1, KdpE DBD (KdpEDBD); assay: AUC sedimentation equilibrium; first binding event, ABB model (macroscopic; upper limit); AUC: 50 mM HEPES pH 7.4, 150 mM KCl, 1 mM EDTA, 20 C, DNA 0.5 uM in SV; EMSA: 10 mM Tris pH 8.0, 50 mM NaCl, 5% glycerol, 0.1% Triton X-100, 10 mM DTT, 1 mM EDT
KdpE DBD (KdpEDBD) [4] = target: T1, KdpE DBD (KdpEDBD); assay: EMSA; minimal 21 bp; AUC: 50 mM HEPES pH 7.4, 150 mM KCl, 1 mM EDTA, 20 C, DNA 0.5 uM in SV; EMSA: 10 mM Tris pH 8.0, 50 mM NaCl, 5% glycerol, 0.1% Triton X-100, 10 mM DTT, 1 mM EDT
KdpE DBD (KdpEDBD) [5] = target: T1, KdpE DBD (KdpEDBD); assay: AUC sedimentation equilibrium; S1 half-site only, 1:1, AB model; AUC: 50 mM HEPES pH 7.4, 150 mM KCl, 1 mM EDTA, 20 C, DNA 0.5 uM in SV; EMSA: 10 mM Tris pH 8.0, 50 mM NaCl, 5% glycerol, 0.1% Triton X-100, 10 mM DTT, 1 mM EDT

B1: kdpFABCBS-1 (dsDNA)
DNA 1: CATTCCTATACTTTTTTTACACCCCGCCCG
DNA 2: CGGGCGGGGTGTAAAAAAAGTATAGGAATG
KdpE DBD (KdpEDBD) [1]
  Kd: 200 ± 100 nM

B2: kdpFABCBS 30 bp (dsDNA)
DNA 1: B1 DNA 1 with C5T, C6T
DNA 2: B1 DNA 2 with G25A, G26A
KdpE DBD (KdpEDBD) [2]
  Kd: 90 nM
KdpE DBD (KdpEDBD) [3]
  Kd: 80 ± 25 nM

B3: kdpFABCBS 5'del1,3'del8 (21 bp) (dsDNA)
DNA 1: ATTTTTATACTTTTTTTACAC
DNA 2: GTGTAAAAAAAGTATAAAAAT
KdpE DBD (KdpEDBD) [4]
  binding result: binds

B4: kdpFABCBS-7 (dsDNA)
DNA 1: CATTTTTATACTTTTTCCACACCCCGCCCG
DNA 2: CGGGCGGGGTGTGGAAAAAGTATAAAAATG
KdpE DBD (KdpEDBD) [5]
  Kd: 350 ± 100 nM
